Key:
[1] = SEC-MALS oligomeric state of FtsA in solution; assay type: physicochemical
Experimental: Light scattering was recorded on a miniDAWN light scattering device (Wyatt). Changes in the refractive index were used to define the peak area, which was used to obtain the molecular mass. The analysis of the data was performed with the ASTRA software (Wyatt).

[2] = Membrane off-binding rate (koff) of FtsA from FRAP
Text: We could also use the data from these bleaching experiments to quantify the membrane-binding kinetics and diffusion of membrane-bound proteins by analysing the change of the fluorescence profile during recovery.
Equimolar concentrations of Cy3- and Cy5-labelled FtsA, supplemented with 20% unlabelled FtsA were used to study FRET and FRAP. Five pre-bleach frames were acquired, followed by acceptor photobleaching of a rectangular ROI with 40% 641 nm laser power and a dwell size of 1 µs/pixel, 75% overlapping lines. The recovery of the signal or the increase in donor intensity were measured with either two frames or one frame per second.
Bleaching the acceptor dye leads to an increase in the donor intensity, which can be used to quantify the Foerster Resonance energy transfer (FRET)[48]. FRET efficiency was quantified with E%=Ipost/Ipost+Ipre⋅100 , where Ipost is the intensity of the […] and Ipre is the […]. […] To extract the contribution of both processes, we adjusted a routine recently published by Gerganova et al.[33]. In short, the code provides the contribution of both modes of recovery by analysing the shape of the fluorescence recovery profile. […] Contribution of diffusion leads to a change of the slope of the outer borders of the bleached region (S4h right). Thus, by measuring the change of the slope of the border recovery, diffusion and simple on/off binding can be distinguished. We developed “FRAPdiff”, a graphical user interface, which uses the original fit routine by David Rutkowski. It can be used directly on.tiff movies with annotated bleach regions as ImageJ ROIs. In addition, we added optional bleach correction, user selectable projection axis (x or y), and optional mirroring of the recovery profiles, if bleaching was not symmetric. The original fit routine for estimating the recovery and diffusion dynamics can be found at https://github.com/davidmrutkowski/1DReflectingDiffusion. FRAPdiff is available at 10.5281/zenodo.6400639[49] under the GPLv3 open-source license.

B1: FtsA R286W (protein)
chain: MIKATDRKLVVGLEIGTAKVAALVGEVLPDGMVNIIGVGSCPSRGMDKGGVNDLESVVKCVQRAIDQAELMADCQISSVYLALSGKHISCQNEIGMVPISEEEVTQEDVENVVHTAKSVRVRDEHRVLHVIPQEYAIDYQEGIKNPVGLSGVRMQAKVHLITCHNDMAKNIVKAVERCGLKVDQLIFAGLASSYSVLTEDERELGVCVVDIGGGTMDIAVYTGGALRHTKVIPYAGNVVTSDIAYAFGTPPSDAEAIKVRHGCALGSIVGKDESVEVPSVGGRPPWSLQRQTLAEVIEPRYTELLNLVNEEILQLQEKLRQQGVKHHLAAGIVLTGGAAQIEGLAACAQRVFHTQVRIGAPLNITGLTDYAQEPYYSTAVGLLHYGKESHLNGEAEVEKRVTASVGSWIKRLNSWLRKEF
modifications: Cy3 or Cy5 at the N-terminus in the labelled form (labelled CLEPTGG peptide conjugated to the 5xGly tag by sortagging); unlabelled protein also used; left off: TwinStrep-SUMO, N-terminal, cleaved | 5x
oligomeric state in solution [1]: monomeric in solution | Off binding rate, mean ([2]; 0.1 µM FtsA + FtsN&Z): 0.0939 s | Off binding rate, mean ([2]; 0.1 µM FtsA + FtsN): 0.062 s | Off binding rate, mean ([2]; 0.1 µM FtsA + FtsZ): 0.204 s | Off binding rate ([2]; 0.1µM FtsA alone, Mean, n=6): 0.3263 | Off binding rate, mean ([2]; 0.1 µM FtsA alone): 0.326 s | Off binding rate ([2]; 0.1µM FtsA alone, replicate Exp.1): 3.18E-01 | Off binding rate ([2]; 0.1µM FtsA alone, replicate Exp.2): 1.79E-01 | Off binding rate ([2]; 0.1µM FtsA alone, replicate Exp.3): 4.12E-01 | Off binding rate ([2]; 0.1µM FtsA alone, replicate Exp.4): 4.03E-01 | Off binding rate ([2]; 0.1µM FtsA alone, replicate Exp.5): 3.20E-01 | Off binding rate ([2]; 0.1µM FtsA alone, replicate Exp.6): 3.25E-01 | Off binding rate ([2]; 0.1µM, + FtsN&Z, Mean, n=3): 0.0939 | Off binding rate ([2]; 0.1µM, + FtsN&Z, replicate Exp.1): 1.11E-01 | Off binding rate ([2]; 0.1µM, + FtsN&Z, replicate Exp.2): 5.81E-02 | Off binding rate ([2]; 0.1µM, + FtsN&Z, replicate Exp.3): 1.13E-01 | Off binding rate ([2]; 0.1µM, + FtsN, Mean, n=3): 0.0620 | Off binding rate ([2]; 0.1µM, + FtsN, replicate Exp.1): 5.84E-02 | Off binding rate ([2]; 0.1µM, + FtsN, replicate Exp.2): 3.36E-02 | Off binding rate ([2]; 0.1µM, + FtsN, replicate Exp.3): 9.39E-02 | Off binding rate ([2]; 0.1µM, + FtsZ, Mean, n=4): 0.2040 | Off binding rate ([2]; 0.1µM, + FtsZ, replicate Exp.1): 1.08E-01 | Off binding rate ([2]; 0.1µM, + FtsZ, replicate Exp.2): 3.38E-01 | Off binding rate ([2]; 0.1µM, + FtsZ, replicate Exp.3): 3.22E-01 | Off binding rate ([2]; 0.1µM, + FtsZ, replicate Exp.4): 4.74E-02 | Off binding rate, mean ([2]; 0.2 µM FtsA + FtsN&Z): 0.099 s | Off binding rate, mean ([2]; 0.2 µM FtsA + FtsN): 0.171 s | Off binding rate, mean ([2]; 0.2 µM FtsA + FtsZ): 0.227 s | Off binding rate ([2]; 0.2µM FtsA alone, Mean, n=6): 0.2513 | Off binding rate, mean ([2]; 0.2 µM FtsA alone): 0.251 s | Off binding rate ([2]; 0.2µM FtsA alone, replicate Exp.1): 2.65E-01 | Off binding rate ([2]; 0.2µM FtsA alone, replicate Exp.2): 3.55E-01 | Off binding rate ([2]; 0.2µM FtsA alone, replicate Exp.3): 3.00E-01 | Off binding rate ([2]; 0.2µM FtsA alone, replicate Exp.4): 1.69E-01 | Off binding rate ([2]; 0.2µM FtsA alone, replicate Exp.5): 2.80E-01 | Off binding rate ([2]; 0.2µM FtsA alone, replicate Exp.6): 1.38E-01 | Off binding rate ([2]; 0.2µM, + FtsN&Z, Mean, n=6): 0.0990 | Off binding rate ([2]; 0.2µM, + FtsN&Z, replicate Exp.1): 2.98E-02 | Off binding rate ([2]; 0.2µM, + FtsN&Z, replicate Exp.2): 2.05E-01 | Off binding rate ([2]; 0.2µM, + FtsN&Z, replicate Exp.3): 6.45E-02 | Off binding rate ([2]; 0.2µM, + FtsN&Z, replicate Exp.4): 4.84E-02 | Off binding rate ([2]; 0.2µM, + FtsN&Z, replicate Exp.5): 1.35E-01 | Off binding rate ([2]; 0.2µM, + FtsN&Z, replicate Exp.6): 1.11E-01 | Off binding rate ([2]; 0.2µM, + FtsN, Mean, n=4): 0.1710 | Off binding rate ([2]; 0.2µM, + FtsN, replicate Exp.1): 5.13E-02 | Off binding rate ([2]; 0.2µM, + FtsN, replicate Exp.2): 3.51E-01 | Off binding rate ([2]; 0.2µM, + FtsN, replicate Exp.3): 1.05E-01 | Off binding rate ([2]; 0.2µM, + FtsN, replicate Exp.4): 1.76E-01 | Off binding rate ([2]; 0.2µM, + FtsZ, Mean, n=6): 0.2270 | Off binding rate ([2]; 0.2µM, + FtsZ, replicate Exp.1): 2.24E-01 | Off binding rate ([2]; 0.2µM, + FtsZ, replicate Exp.2): 4.14E-01 | Off binding rate ([2]; 0.2µM, + FtsZ, replicate Exp.3): 9.28E-02 | Off binding rate ([2]; 0.2µM, + FtsZ, replicate Exp.4): 4.05E-01 | Off binding rate ([2]; 0.2µM, + FtsZ, replicate Exp.5): 1.38E-01 | Off binding rate ([2]; 0.2µM, + FtsZ, replicate Exp.6): 8.76E-02 | Off binding rate, mean ([2]; 0.4 µM FtsA + FtsN&Z): 0.101 s | Off binding rate, mean ([2]; 0.4 µM FtsA + FtsN): 0.18 s | Off binding rate, mean ([2]; 0.4 µM FtsA + FtsZ): 0.179 s | Off binding rate ([2]; 0.4µM FtsA alone, Mean, n=9): 0.3738 | Off binding rate, mean ([2]; 0.4 µM FtsA alone): 0.374 s | Off binding rate ([2]; 0.4µM FtsA alone, replicate Exp.1): 7.99E-01 | Off binding rate ([2]; 0.4µM FtsA alone, replicate Exp.2): 6.65E-01 | Off binding rate ([2]; 0.4µM FtsA alone, replicate Exp.3): 6.54E-01 | Off binding rate ([2]; 0.4µM FtsA alone, replicate Exp.4): 2.78E-01 | Off binding rate ([2]; 0.4µM FtsA alone, replicate Exp.5): 1.57E-01 | Off binding rate ([2]; 0.4µM FtsA alone, replicate Exp.6): 1.25E-01 | Off binding rate ([2]; 0.4µM FtsA alone, replicate Exp.7): 2.26E-01 | Off binding rate ([2]; 0.4µM FtsA alone, replicate Exp.8): 2.05E-01 | Off binding rate ([2]; 0.4µM FtsA alone, replicate Exp.9): 2.55E-01 | membrane exchange (off-rate) ([2]; 0.4 µM FtsA, p-value 6.73 × 10^−6): 0.37 ± 0.24 s⁻¹ | Off binding rate ([2]; 0.4µM, + FtsN&Z, Mean, n=9): 0.1008 | Off binding rate ([2]; 0.4µM, + FtsN&Z, replicate Exp.1): 3.83E-02 | Off binding rate ([2]; 0.4µM, + FtsN&Z, replicate Exp.2): 7.71E-02 | Off binding rate ([2]; 0.4µM, + FtsN&Z, replicate Exp.3): 4.63E-02 | Off binding rate ([2]; 0.4µM, + FtsN&Z, replicate Exp.4): 2.42E-01 | Off binding rate ([2]; 0.4µM, + FtsN&Z, replicate Exp.5): 1.75E-01 | Off binding rate ([2]; 0.4µM, + FtsN&Z, replicate Exp.6): 5.12E-02 | Off binding rate ([2]; 0.4µM, + FtsN&Z, replicate Exp.7): 5.06E-02 | Off binding rate ([2]; 0.4µM, + FtsN&Z, replicate Exp.8): 1.16E-01 | Off binding rate ([2]; 0.4µM, + FtsN&Z, replicate Exp.9): 1.11E-01 | Off binding rate ([2]; 0.4µM, + FtsN, Mean, n=6): 0.1799 | Off binding rate ([2]; 0.4µM, + FtsN, replicate Exp.1): 1.51E-01 | Off binding rate ([2]; 0.4µM, + FtsN, replicate Exp.2): 4.77E-02 | Off binding rate ([2]; 0.4µM, + FtsN, replicate Exp.3): 2.92E-01

— PMC9098913, “In vitro reconstitution of Escherichia coli divisome activation” (Nature Communications, 2022)
